The values that follow come from paper PMC5462769, “A highly conserved sequence of the viral TAP inhibitor ICP47 is required for freezing of the peptide transport cycle” (Scientific Reports, 2017).

Read-outs that look alike come from different tables or passages of the source.

For assay [1], the target named is TAP (Homo sapiens) (UniProt Q03518). To be noted: cited from earlier work.
Assay [2] has the same target. To be noted: cited from earlier work. This is another data set of the same source.
Assay [3] has as its target rT1/hT2 (rat TAP1 with a human C-terminus, with human TAP2-FLAG) (rat | human) (UniProt P36370).
The target in assay [4] is rT1/rT2 (rat TAP1 with a human C-terminus, with rat TAP2-FLAG) (rat | human) (UniProt P36370).
Assay [5] concerns the target T1, hT1/hT2 (human TAP1 with human TAP2-FLAG) (human, UniProt Q03518 1-748; Q03519 1-686).
T1 sequence 1: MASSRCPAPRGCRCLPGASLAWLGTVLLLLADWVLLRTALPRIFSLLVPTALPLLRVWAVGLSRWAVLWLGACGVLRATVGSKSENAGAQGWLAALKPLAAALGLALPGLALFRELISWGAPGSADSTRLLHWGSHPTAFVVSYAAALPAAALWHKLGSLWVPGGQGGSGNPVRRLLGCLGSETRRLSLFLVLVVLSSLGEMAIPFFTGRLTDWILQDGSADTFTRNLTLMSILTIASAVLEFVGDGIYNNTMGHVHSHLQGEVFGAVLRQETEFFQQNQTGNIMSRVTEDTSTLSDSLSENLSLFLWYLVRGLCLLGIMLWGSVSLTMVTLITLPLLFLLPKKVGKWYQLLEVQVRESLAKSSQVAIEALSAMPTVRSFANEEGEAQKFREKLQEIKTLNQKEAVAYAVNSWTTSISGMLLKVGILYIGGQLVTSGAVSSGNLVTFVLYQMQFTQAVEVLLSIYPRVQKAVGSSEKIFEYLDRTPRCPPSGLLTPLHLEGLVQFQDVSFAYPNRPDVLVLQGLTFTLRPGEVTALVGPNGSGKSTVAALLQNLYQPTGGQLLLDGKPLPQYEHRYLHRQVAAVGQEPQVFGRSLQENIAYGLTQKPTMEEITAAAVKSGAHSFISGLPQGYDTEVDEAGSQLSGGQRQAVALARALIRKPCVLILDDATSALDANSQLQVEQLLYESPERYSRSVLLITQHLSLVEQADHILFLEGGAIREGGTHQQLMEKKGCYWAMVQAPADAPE
T1 sequence 2: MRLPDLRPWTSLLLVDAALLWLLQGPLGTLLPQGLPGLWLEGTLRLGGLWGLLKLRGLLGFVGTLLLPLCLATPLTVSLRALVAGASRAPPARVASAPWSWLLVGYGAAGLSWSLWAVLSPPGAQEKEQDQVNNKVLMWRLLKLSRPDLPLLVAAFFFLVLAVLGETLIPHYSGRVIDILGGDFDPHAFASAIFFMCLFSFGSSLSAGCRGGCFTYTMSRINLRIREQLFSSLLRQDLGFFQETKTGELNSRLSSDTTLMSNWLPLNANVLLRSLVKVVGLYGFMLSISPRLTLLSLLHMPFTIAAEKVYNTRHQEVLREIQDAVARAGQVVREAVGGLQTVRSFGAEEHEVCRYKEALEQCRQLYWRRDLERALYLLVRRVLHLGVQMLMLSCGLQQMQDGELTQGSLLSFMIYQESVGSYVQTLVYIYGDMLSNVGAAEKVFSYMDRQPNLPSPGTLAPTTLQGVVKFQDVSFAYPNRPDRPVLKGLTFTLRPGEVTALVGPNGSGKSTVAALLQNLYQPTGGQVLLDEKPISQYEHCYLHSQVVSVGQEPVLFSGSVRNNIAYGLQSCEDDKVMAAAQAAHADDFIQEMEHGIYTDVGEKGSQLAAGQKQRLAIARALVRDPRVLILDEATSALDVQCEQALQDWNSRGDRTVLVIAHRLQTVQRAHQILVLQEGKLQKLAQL
Briefly: cell-based or functional assay.

Assay [6] concerns the target T2, hT1/rT2 (human TAP1 with rat TAP2-FLAG) (human | rat, UniProt Q03518 1-748; P36372 1-703).
T2 sequence 1: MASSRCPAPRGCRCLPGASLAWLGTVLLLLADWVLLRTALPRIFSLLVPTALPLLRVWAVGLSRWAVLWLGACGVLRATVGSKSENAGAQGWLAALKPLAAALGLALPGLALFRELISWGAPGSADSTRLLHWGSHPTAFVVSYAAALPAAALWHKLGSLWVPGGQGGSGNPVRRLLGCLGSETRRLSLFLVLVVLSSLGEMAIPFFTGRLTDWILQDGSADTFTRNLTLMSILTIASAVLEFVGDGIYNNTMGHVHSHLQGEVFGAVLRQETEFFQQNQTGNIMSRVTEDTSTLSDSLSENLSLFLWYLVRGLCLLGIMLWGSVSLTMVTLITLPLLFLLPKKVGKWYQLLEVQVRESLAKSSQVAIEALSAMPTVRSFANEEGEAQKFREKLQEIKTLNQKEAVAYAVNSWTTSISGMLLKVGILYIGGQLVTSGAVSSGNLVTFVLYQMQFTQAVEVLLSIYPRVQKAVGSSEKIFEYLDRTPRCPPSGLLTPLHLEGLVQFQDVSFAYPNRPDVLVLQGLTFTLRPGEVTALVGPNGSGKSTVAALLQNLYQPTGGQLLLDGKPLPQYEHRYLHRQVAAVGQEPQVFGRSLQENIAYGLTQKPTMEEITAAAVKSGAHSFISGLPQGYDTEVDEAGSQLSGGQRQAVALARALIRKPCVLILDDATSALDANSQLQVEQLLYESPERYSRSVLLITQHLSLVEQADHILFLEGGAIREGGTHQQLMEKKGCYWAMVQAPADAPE
T2 sequence 2: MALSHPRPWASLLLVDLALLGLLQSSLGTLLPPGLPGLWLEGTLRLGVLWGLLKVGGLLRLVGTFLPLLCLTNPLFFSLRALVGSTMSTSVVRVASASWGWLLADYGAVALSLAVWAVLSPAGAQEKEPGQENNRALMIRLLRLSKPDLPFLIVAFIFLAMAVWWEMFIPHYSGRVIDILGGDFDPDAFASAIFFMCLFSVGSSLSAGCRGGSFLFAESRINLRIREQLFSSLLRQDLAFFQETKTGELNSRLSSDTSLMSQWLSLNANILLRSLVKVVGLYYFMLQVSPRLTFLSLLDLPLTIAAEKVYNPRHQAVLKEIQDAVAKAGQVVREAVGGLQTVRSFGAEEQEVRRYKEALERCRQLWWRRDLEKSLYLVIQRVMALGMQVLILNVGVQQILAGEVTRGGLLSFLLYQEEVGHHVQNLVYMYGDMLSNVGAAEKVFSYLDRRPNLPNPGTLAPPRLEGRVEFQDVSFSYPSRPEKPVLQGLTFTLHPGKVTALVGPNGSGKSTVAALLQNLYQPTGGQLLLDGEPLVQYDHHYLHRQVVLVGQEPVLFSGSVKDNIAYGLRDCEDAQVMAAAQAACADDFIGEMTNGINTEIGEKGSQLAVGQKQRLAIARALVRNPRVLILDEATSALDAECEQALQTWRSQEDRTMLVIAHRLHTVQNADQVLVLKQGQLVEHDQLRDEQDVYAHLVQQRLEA
Briefly: cell-based or functional assay.

With ICP47 1-48 (from UniProt P03170), the Kd with TAP (Homo sapiens) [1] was 126 nM.

ICP47 1-53 (from UniProt P03170): the Kd with TAP (Homo sapiens) [2] was 50 nM.

B1: ICP47-HA (wild-type ICP47 with a C-terminal HA-tag), in CMT64.5 cells (natural protein)
chain: MSWALEMADTFLDTMRVGPRTYADVRDEINKRGREDREAARTAVHDPERPLLRSPGLLPEIAPNASLGVAHRRTGGTVTDSPRNPVTR
As for B1, the MHC class I surface expression (mAb 20-8-4) on CMT64.5 cells, ICP47-positive relative to ICP47-negative cells in assay [3] was 47 % expression; in assay [4] it was 101 % expression; in assay [5], 17 % expression; in assay [6], 88 % expression.

B2: ICP47m-HA (ICP47 with Pro50Leu51Leu52 mutated to AlaAlaAla, C-terminal HA-tag), in CMT64.5 cells (natural protein, herpes simplex virus type-1 (HSV-1), UniProt P03170 1-88, looked up)
chain: MSWALEMADTFLDTMRVGPRTYADVRDEINKRGREDREAARTAVHDPERAAARSPGLLPEIAPNASLGVAHRRTGGTVTDSPRNPVTR
As for B2, the “MHC class I surface expression (mAb 20-8-4) on CMT64.5 cells, ICP47-positive relative to ICP47-negative cells” value in assay [5] came to 26 % expression.
